Usually Kd stands for the free concentration of one partner at which half of the binding sites on the other are occupied at equilibrium, for simple one-to-one binding. The low end stands for tighter binding, the high end for weaker binding.

The labels stand for the following.
B1: anti-CD22 heavy chain-only antibody Clone ID 335293 (antibody, V domains shown)
VH: QLQLQESGPGLVKPSETLSLTCTVSGDSISSGDYYWGWIRQPPGKGLEWIGHIYYSGATYYNPSLKNRVTISVDTSRNQFSLKLSSVTAADTAVYYCTREDSSSWRSRGQGTLVTVSS
B2: anti-CD22 heavy chain-only antibody Clone ID 335179 (antibody, V domains shown)
VH: QLQLQESGPGLVKPSETLSLTCTVSGGSISSSSYYWGWFRHPPGKGLDWIGSIHYSGSTYYNPSLKSRVTISVDTSRNQFSLNLSSVTAADTAVYYCTRDDSSNWRSRGQGTLVTVSS
B3: anti-CD22 heavy chain-only antibody Clone ID 335297 (antibody, V domains shown)
VH: QLQLQESGPGLVKPSETLSLTCTVSGGSISSSSYYWGWIRQPPGKGLEWIGHIYYSGATYYNPSLKNRVTISVDTSRNQFSLNLSSVTAADTAVYYCTREDSSSWRSRGQGTLVTVSS
B4: anti-CD22 heavy chain-only antibody Clone ID 335166 (antibody, V domains shown)
VH: QLQLQESGPGLVKPSETLSLTCTVSGGSISSSSYYWGWIRQPPGKGLEWIGSIYYSGSTYYNPSLKNRVTISVDTSRNQFSLNLSSVTAADTAVYYCTRDDSSNWRSRGQGTLVTVSS
B5: anti-CD22 heavy chain-only antibody Clone ID 335173 (antibody, V domains shown)
VH: QLQLQESGPGLVKPSETLSLTCTVSGGSITSSSYYWGWIRQPPGKGLEWIGSIYYSGSTYYNPSLKSRVTISVDTSKNQFSLKLSSVTAADTAVYYCTRDDSSNWRSRGQGTLVTVSS
B6: anti-CD22 heavy chain-only antibody Clone ID 335210 (antibody, V domains shown)
VH: QLQLQESGPGLVKPSETLSLTCTVSGGSISSGDYYWGWIRQPPGKGLEWIGHIYYSGATYYNPSLKNRVTISVDTSRNQFSLKLSSVTAADTAVYYCTREDSSNWRSRGQGTLVTVSS
B7: anti-CD22 heavy chain-only antibody Clone ID 335186 (antibody, V domains shown)
VH: QLQLQESGPGLVKPSETLSLTCTVSGGSISSSSYYWGWIRQPPGKGLEWIGSIYYSGSTYYNPSLKSRVTISVDTSKNQFSLKLSSVTAADTAVYYCTRDDSSNWRSRGQGTLVTVSS
B8: anti-CD22 heavy chain-only antibody Clone ID 335150 (antibody, V domains shown)
VH: QLQLQESGPGLVKPSETLSLTCTVSGDSISSGDYYWGWIRQSPEKGLEWIGHIYYSGVTYYNPSLKNRVTISVDTSKNQFSLKLSSVTAADTAVYYCKRDDSSNWRSRGQGTLVTVSS
B9: anti-CD22 heavy chain-only antibody Clone ID 335233 (antibody, V domains shown)
VH: QLQLQESGPGLVKPSETLSLTCTVSGDSISSGDYYWGWIRQPPGKGLEWIGSIYYSGSTYYNPSLKSRVTISVDTSKNQFSLKLSSVTAADTAVYYCTREDSSNWRSRGQGTLVTVSS
B10: anti-CD22 heavy chain-only antibody Clone ID 335208 (antibody, V domains shown)
VH: QLQLQESGPGLVKPSETLSLTCTVSGGSISSSSYYWGWIRQPPGKGLEWIGSIYYSGATYYNPSLKNRVTISVDTSRNQFSLNLSSVTAADTAVYYCTREDSSNWRSRGQGTLVTVSS
B11: anti-CD22 heavy chain-only antibody Clone ID 335242 (antibody, V domains shown)
VH: QLQLQESGPGLVKPSETLSLTCTVSGGSISSSSYYWGWIRQPPGKGLEWIGHIYYSGATYYNPSLKNRVTISVDTSRNQFSLNLSSVTAADTAVYYCTREDSSNWRSRGQGTLVTVSS
B12: anti-CD22 heavy chain-only antibody Clone ID 335316 (antibody, V domains shown)
VH: QLQLQESGPGLVKPSETLSLTCTVSGGSISSSSYYWGWIRQPPGKGLEWIGHIYYSGATYYNPSLKNRVTISVDTSKNQFSLKLSSVTAADTAVYYCTREDSSSWRSRGQGTLVTVSS
B13: anti-CD22 heavy chain-only antibody Clone ID 335285 (antibody, V domains shown)
VH: QLQLQESGPGLVKPSETLSLTCTVSGGSISSSSYYWGWIRQPPGKGLEWIGSIYYSGVTYYNPSLKNRVTISVDTSKNQFSLKLSSVTAADTAVYYCTREDSSSWRSRGQGTLVTVSS
B14: anti-CD22 heavy chain-only antibody Clone ID 335159 (antibody, V domains shown)
VH: QLQLQESGPGLVKPSETLSLTCTVSGGSISSSSYYWGWIRQPPGKGLEWIGHIYYSGVTYYNPSLKNRVTISVDTSKNQFSLKLSSVTAADTAAYYCTRDDSSNWRSRGQGTLVTVSS
B15: anti-CD22 heavy chain-only antibody Clone ID 335220 (antibody, V domains shown)
VH: QLQLQESGPGLVKPSETLSLTCTVSGGSISSSSYYWGWIRQPPGKGLEWIGSIYYSGSTYYNPSLKNRVTISVDTSKNQFSLKLSSVTAADTAVYYCTREDSSNWRSRGQGTLVTVSS
B16: anti-CD22 heavy chain-only antibody Clone ID 335283 (antibody, V domains shown)
VH: QLQLQESGPGLVKPSETLSLTCTVSGGSISSSSYYWGWIRQPPGKGLEWIGSIYYSGATYYNPSLKNRVTISVDTSKNQFSLKLSSVTAADTAVYYCTREDSSSWRSRGQGTLVTVSS
B17: anti-CD22 heavy chain-only antibody Clone ID 335274 (antibody, V domains shown)
VH: QLQLQESGPGLVKPSETLSLTCTVSGGSISSSSYYWGWIRQPPGKGLEWIGSIYYSGSTYYNPSLKSRVTISVDTSRNQFSLNLSSVTAADTAVYYCTREDSSSWRSRGQGTLVTVSS
B18: anti-CD22 heavy chain-only antibody Clone ID 335226 (antibody, V domains shown)
VH: QLQLQESGPGLVKPSETLSLTCTVSGDSISSSSYYWGWIRQPPGKGLEWIGSIYYSGSTYYNPSLKSRVTISVDTSKNQFSLKLSSVTAADTAVYYCTREDSSNWRSRGQGTLVTVSS
B19: anti-CD22 heavy chain-only antibody Clone ID 335224 (antibody, V domains shown)
VH: QLQLQESGPGLVKPSETLSLTCTVSGDSISSGDYYWGWIRQPPGKGLEWIGSIYYTGSTYYNPSLKSRVTISVDTSKNQFSLKLSSVTAADTAVYYCTREDSSNWRSRGQGTLVTVSS
B20: anti-CD22 heavy chain-only antibody Clone ID 335273 (antibody, V domains shown)
VH: QLQLQESGPGLVKPSETLSLTCTVSGGSISSSSYYWGWIRQPPGKGLEWIGSIYYSGSTYYNPSLKSRVTISVDTSKNQFSLKLSSVTAADTAVYYCTREDSSSWRSRGQGTLVTVSS
B21: anti-CD22 heavy chain-only antibody Clone ID 335195 (antibody, V domains shown)
VH: QLQLQESGPGLVKPSETLSLTCTVSGGSISSSSYYWGWIRQPPGKGLEWIGSIYYSGATYYNPSLKNRVTISVDTSRNQFSLNLSSVTAADTAMYYCTREDSSNWRSRGQGTLVTVSS
B22: anti-CD22 heavy chain-only antibody Clone ID 335333 (antibody, V domains shown)
VH: QLQLQESGPGLVKPSETLSLTCTVSGGSISSSSYYWGWIRQPPGKGLEWIGSIYYSGSTYYNPSLKSRVTISVDTSKNQFSLKLSSVTAADTAVYYCAREDSSSWRSRGQGTLVTVSS
B23: anti-CD22 heavy chain-only antibody Clone ID 335189 (antibody, V domains shown)
VH: QLQLQESGPGLVKPSETLSLTCTVSGGSISSSSYYWGWIRQPPGKGLEWIGSVYYTGATYYNPSLKNRVTISVDTSKNQFSLKLSSVTAADTAVYYCTRDDSSNWRSRGQGTLVTVSS
B24: anti-CD22 heavy chain-only antibody Clone ID 335266 (antibody, V domains shown)
VH: QLQLQESGPGLVRPSETLSLTCTVSGGSISSSSYYWGWIRQPPGKGLEWIGSIYYSGSTYYNPSLKSRVTISVDTSKNQFSLKLSSVTAADTAVYYCTREDSSSWRSRGQGTLVTVSS
B25: anti-CD22 heavy chain-only antibody Clone ID 335236 (antibody, V domains shown)
VH: QLQLQESGPGLVKPSETLSLTCTVSGGSISSSSYYWGWIRQPPGKGLEWIGSIYYSGSTYYNPSLKSRVTISVDTSKNQFSLKLSSVTAADTAVYYCTREDSSNWRSRGQGTLVTVSS
B26: anti-CD22 heavy chain-only antibody Clone ID 335188 (antibody, V domains shown)
VH: QLQLQESGPGLVKPSETLSLTCTVSGGSISSSSYYWGWIRQPPGKGLEWIGHIYYSGVTYYNPSLKNRVTISVDTSKNQFSLKLSSVTAADTAVYYCTRDDSSNWRSRGQGTLVTVSS
B27: anti-CD22 heavy chain-only antibody Clone ID 335187 (antibody, V domains shown)
VH: QLQLQESGPGLVKPSETLSLTCTVSGGSISSSSYYWGWIRQPPGKGLEWIGHIYYSGATYYNPSLKNRVTISVDTSKNQFSLKLSSVTAADTAVYYCTRDDSSNWRSRGQGTLVTVSS
B28: anti-CD22 heavy chain-only antibody Clone ID 335295 (antibody, V domains shown)
VH: QLQLQESGPGLVKPSETLSLTCTVSGGSISSSSYYWGWIRQPPGKGLEWIGSIYYSGATYYNPSLKNRVTISVDTSRNQFSLNLSSVTAADTAVYYCTREDSSSWRSRGQGTLVTVSS
B29: anti-CD22 heavy chain-only antibody Clone ID 335219 (antibody, V domains shown)
VH: QLQLQESGPGLVKPSETLSLTCTVSGGSISSSSYYWGWIRQPPGKGLEWIGSIYYSGVTYYNPSLKNRVTISVDTSKNQFSLKLSSVTAADTAVYYCTREDSSNWRSRGQGTLVTVSS
B30: anti-CD22 heavy chain-only antibody Clone ID 335230 (antibody, V domains shown)
VH: QLQLQESDPGLVKPSETLSLTCTVSGGSISSSSHYWGWIRQPPGKGLEWIGHIYYSGATYYNPSLKNRVTISVDTSRNQFSLNLSSVTAADTAVYYCTREDSSNWRSRGQGTLVTVSS
B31: anti-CD22 heavy chain-only antibody Clone ID 335162 (antibody, V domains shown)
VH: QLQLQESGPGLVKPSETLSLTCTVSGGSIISSSYYWGWIRQPPGKGLEWIGSIYYSGSAYYHPSLKSRVTISIDTSKNQFSLKLSSVTAADTAVYYCARDDSSNWRSRGQGTLVTVSS
B32: anti-CD22 heavy chain-only antibody Clone ID 335311 (antibody, V domains shown)
VH: QLQLQESGPGLVKPSETLSLTCAVYGGSFSGYYWGWIRQPPGKGLEWIGHIYYSGATYYNPSLKNRVTISVDTSRNQFSLNLSSVTAADTAVYYCTREDSSSWRSRGQGTLVTVSS

T1 sequence (P20273 20-687): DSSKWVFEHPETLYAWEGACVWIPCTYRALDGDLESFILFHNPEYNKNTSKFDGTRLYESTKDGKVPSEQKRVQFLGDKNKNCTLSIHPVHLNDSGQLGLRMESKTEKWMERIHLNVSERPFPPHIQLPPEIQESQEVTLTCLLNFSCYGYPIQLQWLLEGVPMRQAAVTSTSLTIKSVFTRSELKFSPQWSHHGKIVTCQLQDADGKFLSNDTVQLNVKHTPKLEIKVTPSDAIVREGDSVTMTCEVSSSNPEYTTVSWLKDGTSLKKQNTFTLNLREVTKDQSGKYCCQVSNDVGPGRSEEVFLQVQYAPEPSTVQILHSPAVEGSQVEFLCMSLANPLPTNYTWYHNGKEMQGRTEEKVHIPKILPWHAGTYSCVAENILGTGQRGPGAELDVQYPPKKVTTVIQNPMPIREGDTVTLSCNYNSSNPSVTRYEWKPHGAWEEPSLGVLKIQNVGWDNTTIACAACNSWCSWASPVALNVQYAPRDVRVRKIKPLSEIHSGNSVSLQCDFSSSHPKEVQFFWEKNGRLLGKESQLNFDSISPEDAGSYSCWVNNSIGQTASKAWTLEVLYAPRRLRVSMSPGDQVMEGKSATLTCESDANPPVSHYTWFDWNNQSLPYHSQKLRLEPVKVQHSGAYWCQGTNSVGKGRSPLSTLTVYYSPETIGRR

The first assay addresses T1, human CD22 (human, UniProt P20273 20-687). The assay can be described thus: BLI. The essentials:
(§1)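 Binding affinity was measured by biolayer interferometry, with Kd taken as koff/kon. The instrument was an Octet QK-384 with anti-human IgG Fc capture biosensors, run in 1×PBS, 0.1% BSA, 0.02% Tween-20, pH 7.2. After loading at 5 μg/mL for 120 seconds, the heavy chain-only antibodies were exposed to human CD22 protein in a 7-point 1:2 series from 250 nM, with a buffer-only reference well. Rate constants came from a 1:1 binding model in Octet Data Analysis v9.0.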
On the technique in general: In BLI a coated tip is dipped into the sample, and binding shifts an interference pattern.
As for B1, the dissociation constant Kd turned out to be 7.41 nM.

The target of the next assay is T1, human CD22. The assay can be described thus: BLI. The source holds these as a separate data set. Summed up: as §1
Turning to B2, the affinity, expressed as Kd, was 148 nM.

For the molecule B3, the Kd is 28.8 nM.

The molecule B4 showed a Kd of 33 nM. This Kd and that of the molecule before are within 1.5-fold of each other.

Take B5: the Kd worked out at 30.5 nM. The Kd values of the last two molecules are within 1.5-fold of each other.

Take B6: binding was put at a Kd of 62.5 nM.

B7: the affinity, expressed as Kd, was 17.6 nM.

Consider B8, for which the Kd is 14.1 nM. The Kd values of the last two molecules are within 1.5-fold of each other.

Regarding B9, the Kd was 19 nM.

With B10, the affinity, expressed as Kd, was 58.4 nM.

With B11, the Kd turned out to be 79.7 nM. The Kd values of the last two molecules are within 1.5-fold of each other.

For the molecule B12, binding was put at a Kd of 23.5 nM.

With B13, the Kd was 114 nM.

For B14, the affinity, expressed as Kd, was 16.1 nM.

Consider B15, for which the affinity, expressed as Kd, was 48.2 nM.

B16 showed a Kd of 36.9 nM.

B17 registered a Kd of 23.6 nM.

B18: the Kd came out at 25.5 nM.

B19 gave a dissociation constant Kd of 23.4 nM.

The molecule B20 registered a Kd of 42.2 nM.

As for B21, binding was put at a Kd of 150 nM. This Kd lies about 3.6-fold higher than the previous one.

With B22, the Kd is 22.4 nM.

Molecule B23 had a Kd of 36 nM.

Take B24: the Kd is 38.5 nM.

Molecule B25 showed a dissociation constant (Kd) of 27.3 nM.

In turn, B26 had a dissociation constant Kd of 53 nM.

B27 returned a Kd of 128 nM.

In the case of B28, the Kd is 31.6 nM. Compared with the last molecule, the Kd is about 4.1-fold lower.

Take B29: the Kd is 90.6 nM.

The molecule B30 came in with a Kd of 75.2 nM.

On to B31, for which the equilibrium dissociation constant (Kd) was determined as 99.6 nM.

B32 showed a Kd of 2.66 nM.

These data come from patent US20210047402A1 (published 2021).
